Target: c-Myc353-439 (bHLH-LZ)/Max(S) heterodimer (Homo sapiens, UniProt P01106;P61244-2 P01106:368-454,P61244-2:1-151)
Experiment: EMSA; 60 nM each protein, 10 nM DNA; 1xPBS pH 7.3, 1 mM EDTA, 0.1% NP40, 5% glycerol, 1 mM DTT, 0.4 mg/mL BSA, 25 C; binding inhibited dose-dependently by 10058-F4 and analogs
Conditions: tags: c-Myc: His6 cleaved by TEV, GGCD C-terminal extension, label: 5'-HEX on one strand
Procedure: Electrophoretic mobility shift Assays (EMSAs). Experiments were performed on 8% polyacrylamide:bis-acrylamide (80:1) gels in 0.5×TBE. Binding reactions were prepared in a buffer consisting of 1×PBS (pH 7.3); 1 mM EDTA; 0.1% NP40; 5% glycerol; 1 mM dithiothreitol; and 0.4 mg/mL BSA. A 22 base-pair E-box-containing double-stranded DNA oligonucleotide labeled on one strand with hexachlorofluoresceine (HEX) consisted of the following sequence:
The second method used to gauge the effects of 10058-F4 and its analogs on c-Myc-Max complexes relied on the use of a simple, three component electrophoretic mobility shift assay (EMSA). For this purpose, a recombinant c-Myc peptide, which encompasses the bHLH-LZ domain (c-_{Myc353-439}), together with the full-length His₆-tagged 151 amino acid isoform of Max [designated Max(S)] (Zhang H, et al. J Biol Chem 1997; 272; 17416-24 and Prochownik E V, et al. Proc Natl Acad Sci USA 1993; 90:960-4) were incubated in increasing concentrations of each relevant compound. The ability of the resultant heterodimer to bind a double-stranded target oligonucleotide containing a consensus E-box motif was then assessed by PAGE. […]

Chain of c-Myc353-439 (bHLH-LZ)/Max(S) heterodimer (P01106 368-454, chain 1 of 2): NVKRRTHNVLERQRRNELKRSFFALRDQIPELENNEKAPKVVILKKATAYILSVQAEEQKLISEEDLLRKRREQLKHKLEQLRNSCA
Chain of c-Myc353-439 (bHLH-LZ)/Max(S) heterodimer (P61244 other isoform, or with tags, fused parts or gaps, chain 2 of 2): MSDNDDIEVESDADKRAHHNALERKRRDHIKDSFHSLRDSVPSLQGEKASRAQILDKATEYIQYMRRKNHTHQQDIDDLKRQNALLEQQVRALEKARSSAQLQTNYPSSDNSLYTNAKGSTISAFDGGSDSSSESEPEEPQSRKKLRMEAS

B1: E-box 22-mer duplex (dsDNA)
DNA 1: CACCCGGTCACGTGGCCTACAC
DNA 2: GTGTAGGCCACGTGACCGGGTG
B1: binds.
